Where two headings read alike, the source gives them in different places. Blank lines part the entries; values can stand above or below the binder they belong to.
Assays:
4H741-bA = target: T1, 4H741-bA; assay: two-hybrid library CCNG1;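 note: natural log of median RNA to DNA barcode read ratio; higher means stronger binding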
T1 chain: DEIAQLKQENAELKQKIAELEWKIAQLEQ

4H477-bA = target: T2, 4H477-bA; assay: two-hybrid library CCNG1;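 note: natural log of median RNA to DNA barcode read ratio; higher means stronger binding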
T2 chain: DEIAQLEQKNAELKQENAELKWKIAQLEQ

4H348-bA = target: T3, 4H348-bA; assay: two-hybrid library CCNG1;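 note: natural log of median RNA to DNA barcode read ratio; higher means stronger binding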
T3 chain: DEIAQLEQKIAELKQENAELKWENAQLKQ

4H492-bA = target: T4, 4H492-bA; assay: two-hybrid library CCNG1;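 note: natural log of median RNA to DNA barcode read ratio; higher means stronger binding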
T4 chain: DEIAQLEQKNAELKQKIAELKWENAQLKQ

4H40-bA = target: T5, 4H40-bA; assay: two-hybrid library CCNG1;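 note: natural log of median RNA to DNA barcode read ratio; higher means stronger binding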
T5 chain: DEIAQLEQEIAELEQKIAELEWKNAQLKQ

4H_APH = target: T6, 4H_APH; assay: two-hybrid library CCmax; conditions: mean of both orientations;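 note: natural log of median RNA to DNA barcode read ratio; higher means stronger binding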
T6 chain: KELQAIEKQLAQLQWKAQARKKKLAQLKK

4H3001-AA = target: T7, 4H3001-AA; assay: two-hybrid library CCmax; conditions: mean of both orientations
T7 chain: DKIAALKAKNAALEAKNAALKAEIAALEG

4H2931-AA = target: T8, 4H2931-AA; assay: two-hybrid library CCmax
T8 chain: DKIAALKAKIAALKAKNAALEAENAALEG

4H347-AA = target: T9, 4H347-AA; assay: two-hybrid library CCmax; conditions: mean of both orientations
T9 chain: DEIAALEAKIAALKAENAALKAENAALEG

4H3015-AA = target: T10, 4H3015-AA; assay: two-hybrid library CCmax; conditions: mean of both orientations
T10 chain: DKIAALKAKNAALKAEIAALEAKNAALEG

4H_BCR = target: T11, 4H_BCR; assay: two-hybrid library CCmax; conditions: mean of both orientations
T11 chain: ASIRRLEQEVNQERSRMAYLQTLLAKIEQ

4H3438-AA = target: T12, 4H3438-AA; assay: two-hybrid library CCmax; conditions: mean of both orientations
T12 chain: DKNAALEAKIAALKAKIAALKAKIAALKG

4H_GCN4 = assay: two-hybrid library CCmax
4H3073-AA = target: T13, 4H3073-AA; assay: two-hybrid library CCmax
T13 chain: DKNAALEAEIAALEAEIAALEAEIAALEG

4H406-AA = target: T14, 4H406-AA; assay: two-hybrid library CCmax; conditions: mean of both orientations
T14 chain: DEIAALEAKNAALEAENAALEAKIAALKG

4H452-AA = target: T15, 4H452-AA; assay: two-hybrid library CCmax; conditions: mean of both orientations
T15 chain: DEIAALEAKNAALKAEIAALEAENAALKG

GCN2_T = assay: two-hybrid library CCmax
4H56-AA = target: T16, 4H56-AA; assay: two-hybrid library CCmax; conditions: mean of both orientations
T16 chain: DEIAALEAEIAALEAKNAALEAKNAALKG

4H949-bN = target: T17, 4H949-bN; assay: two-hybrid library CCNG1
T17 chain: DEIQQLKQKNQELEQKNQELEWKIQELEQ

4H56-bN = target: T18, 4H56-bN; assay: two-hybrid library CCNG1
T18 chain: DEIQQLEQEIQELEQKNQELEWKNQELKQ

4H349-bN = target: T19, 4H349-bN; assay: two-hybrid library CCNG1
T19 chain: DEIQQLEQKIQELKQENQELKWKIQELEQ

4H796-bN = target: T20, 4H796-bN; assay: two-hybrid library CCNG1
T20 chain: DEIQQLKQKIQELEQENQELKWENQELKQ

4H3381-bN = target: T21, 4H3381-bN; assay: two-hybrid library CCNG1
T21 chain: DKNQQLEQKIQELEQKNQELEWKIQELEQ

4H932-bN = target: T22, 4H932-bN; assay: two-hybrid library CCNG1
T22 chain: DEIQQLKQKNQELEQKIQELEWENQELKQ

4H730-bN = target: T23, 4H730-bN; assay: two-hybrid library CCNG1
T23 chain: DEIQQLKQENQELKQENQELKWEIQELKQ

O8-bA = target: T24, O8-bA; assay: two-hybrid library CCNG1
T24 chain: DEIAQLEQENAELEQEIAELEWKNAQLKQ

4H454-bH = target: T25, 4H454-bH; assay: two-hybrid library CCNG1
T25 chain: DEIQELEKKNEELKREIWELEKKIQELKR

4H797-bH = target: T26, 4H797-bH; assay: two-hybrid library CCNG1
T26 chain: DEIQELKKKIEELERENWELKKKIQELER

4H72-bH = target: T27, 4H72-bH; assay: two-hybrid library CCNG1
T27 chain: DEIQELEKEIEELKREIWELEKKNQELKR

4H4001-bH = target: T28, 4H4001-bH; assay: two-hybrid library CCNG1
T28 chain: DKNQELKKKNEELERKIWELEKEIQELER

4H918-bH = target: T29, 4H918-bH; assay: two-hybrid library CCNG1
T29 chain: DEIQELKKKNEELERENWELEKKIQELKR

4H3855-bH = target: T30, 4H3855-bH; assay: two-hybrid library CCNG1
T30 chain: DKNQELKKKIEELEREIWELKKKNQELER

4H883-bH = target: T31, 4H883-bH; assay: two-hybrid library CCNG1
T31 chain: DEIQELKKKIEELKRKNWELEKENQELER

4H607-bH = target: T32, 4H607-bH; assay: two-hybrid library CCNG1
T32 chain: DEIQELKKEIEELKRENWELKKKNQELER

4H717-bH = target: T33, 4H717-bH; assay: two-hybrid library CCNG1
T33 chain: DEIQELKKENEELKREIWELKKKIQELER

4H953-bH = target: T34, 4H953-bH; assay: two-hybrid library CCNG1
T34 chain: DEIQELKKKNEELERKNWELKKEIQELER

4H687-bH = target: T35, 4H687-bH; assay: two-hybrid library CCNG1
T35 chain: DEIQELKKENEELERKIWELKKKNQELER

4H568-bH = target: T36, 4H568-bH; assay: two-hybrid library CCNG1
T36 chain: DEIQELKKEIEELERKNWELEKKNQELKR

4H967-bH = target: T37, 4H967-bH; assay: two-hybrid library CCNG1
T37 chain: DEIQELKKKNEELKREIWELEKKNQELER

4H908-bH = target: T38, 4H908-bH; assay: two-hybrid library CCNG1
T38 chain: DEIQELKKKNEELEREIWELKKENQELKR

4H55-AA = target: T39, 4H55-AA; assay: two-hybrid library CCmax; conditions: mean of both orientations
T39 chain: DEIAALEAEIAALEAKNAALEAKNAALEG

4H481-AA = target: T40, 4H481-AA; assay: two-hybrid library CCmax; conditions: mean of both orientations
T40 chain: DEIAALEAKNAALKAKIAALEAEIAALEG

4H3664-AA = target: T41, 4H3664-AA; assay: two-hybrid library CCmax
T41 chain: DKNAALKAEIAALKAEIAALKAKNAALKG

4H3922-AA = target: T42, 4H3922-AA; assay: two-hybrid library CCmax; conditions: mean of both orientations
T42 chain: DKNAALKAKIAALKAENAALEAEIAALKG

4H369-AA = target: T43, 4H369-AA; assay: two-hybrid library CCmax; conditions: mean of both orientations
T43 chain: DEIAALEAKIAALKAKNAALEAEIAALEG

4H4033-AA = target: T44, 4H4033-AA; assay: two-hybrid library CCmax; conditions: mean of both orientations
T44 chain: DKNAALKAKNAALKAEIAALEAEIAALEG

4H662-AA = target: T45, 4H662-AA; assay: two-hybrid library CCmax; conditions: mean of both orientations
T45 chain: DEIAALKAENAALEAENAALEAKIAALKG

4H477-bN = target: T46, 4H477-bN; assay: two-hybrid library CCNG1
T46 chain: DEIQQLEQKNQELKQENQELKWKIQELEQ

4H741-bN = target: T47, 4H741-bN; assay: two-hybrid library CCNG1
T47 chain: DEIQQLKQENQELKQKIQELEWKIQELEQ

4H40-bN = target: T48, 4H40-bN; assay: two-hybrid library CCNG1
T48 chain: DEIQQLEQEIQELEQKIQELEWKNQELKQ

4H492-bN = target: T49, 4H492-bN; assay: two-hybrid library CCNG1
T49 chain: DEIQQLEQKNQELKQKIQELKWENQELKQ

4H949-bA = target: T50, 4H949-bA; assay: two-hybrid library CCNG1
T50 chain: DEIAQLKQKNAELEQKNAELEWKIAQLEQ

O13-AA = target: T51, O13-AA; assay: two-hybrid library CCmax; conditions: mean of both orientations
T51 chain: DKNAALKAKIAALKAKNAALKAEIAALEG

O11-AA = target: T52, O11-AA; assay: two-hybrid library CCmax; conditions: mean of both orientations
T52 chain: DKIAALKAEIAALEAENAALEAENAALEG

4H451-AA = target: T53, 4H451-AA; assay: two-hybrid library CCmax; conditions: mean of both orientations
T53 chain: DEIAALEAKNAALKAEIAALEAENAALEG

O14-AA = target: T54, O14-AA; assay: two-hybrid library CCmax; conditions: mean of both orientations
T54 chain: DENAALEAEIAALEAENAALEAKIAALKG

4H43-AA = target: T55, 4H43-AA; assay: two-hybrid library CCmax; conditions: mean of both orientations
T55 chain: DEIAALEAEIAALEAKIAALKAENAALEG

4H4038-AA = target: T56, 4H4038-AA; assay: two-hybrid library CCmax
T56 chain: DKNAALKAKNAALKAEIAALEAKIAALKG

4H510-AA = target: T57, 4H510-AA; assay: two-hybrid library CCmax; conditions: mean of both orientations
T57 chain: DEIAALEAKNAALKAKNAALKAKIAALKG

4H_GCN4, sequence (chain, as listed by the source): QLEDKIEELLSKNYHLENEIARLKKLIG

Binder: DEIAQLEQKIAELKQENAELKWENAQLKQ [4H348-bA]
interaction score (4H741-bA): -0.761
interaction score (4H477-bA): -1.23
interaction score (4H348-bA): 0.473
interaction score (4H492-bA): -0.0783
interaction score (4H40-bA): -0.298

Binder: DKIAALKAKIAALKAKNAALEAENAALEG [4H2931-AA]
interaction score (4H_APH): -1.87
interaction score (4H3001-AA): -1.79
interaction score (4H2931-AA): -1.66
interaction score (4H347-AA): -1.41
interaction score (4H3015-AA): -2.54
interaction score (4H_BCR): -1.73
interaction score (4H3438-AA): -1.54
interaction score (4H_GCN4; mean of both orientations): -2.51
interaction score (4H3073-AA): 0.803
interaction score (4H406-AA): -0.98
interaction score (4H452-AA): -1.98
interaction score (GCN2_T): -2.11
interaction score (4H56-AA): 1.81

Binder: DKNQQLEQKIQELEQKNQELEWKIQELEQ [4H3381-bN]
interaction score (4H949-bN): -1.1
interaction score (4H56-bN): -1.09
interaction score (4H349-bN): -0.946
interaction score (4H796-bN): -1.3
interaction score (4H3381-bN): 0.302
interaction score (4H932-bN): -0.998
interaction score (4H730-bN): -1.25

Binder: DEIQQLEQEIQELEQKIQELEWKNQELKQ [4H40-bN]
interaction score (4H477-bN): 0.0764
interaction score (4H741-bN): -0.956
interaction score (4H40-bN): 0.212
interaction score (4H492-bN): -0.862

Binder: DEIAQLEQEIAELEQKIAELEWKNAQLKQ [4H40-bA]
interaction score (4H741-bA): -0.423
interaction score (4H949-bA): -1.8
interaction score (4H477-bA): -1.02
interaction score (4H492-bA): 1.72
interaction score (4H40-bA): 1.76

Other lines, results leading:

interaction score (O8-bA): -2.06
interaction score (4H454-bH): 0.744
interaction score (4H797-bH): -0.875
interaction score (4H72-bH): -1.07
interaction score (4H4001-bH): 1.02
interaction score (4H918-bH): -0.471
interaction score (4H3855-bH): -1.88
interaction score (4H883-bH): 0.413
interaction score (4H607-bH): -1.71
interaction score (4H717-bH): -0.607
interaction score (4H953-bH): -0.861
interaction score (4H687-bH): -0.688
interaction score (4H568-bH): -2.56
interaction score (4H967-bH): -0.847
interaction score (4H908-bH): -1.26
Binder: DKNQELKKKIEELEREIWELKKKNQELER [4H3855-bH]

interaction score (4H55-AA): -1.04
interaction score (4H481-AA): -1.04
interaction score (4H3664-AA): 0.563
interaction score (4H3922-AA): -1.57
interaction score (4H369-AA): -1.44
interaction score (4H4033-AA): -1.55
interaction score (4H662-AA): -1.5
Binder: DKNAALKAEIAALKAEIAALKAKNAALKG [4H3664-AA]

interaction score (4H_APH): -2.34
interaction score (4H_BCR): -1.53
interaction score (O13-AA): -2.19
interaction score (O11-AA): -1.13
interaction score (4H451-AA): -1.08
interaction score (4H_GCN4): -1.46
interaction score (O14-AA): 1.56
interaction score (4H43-AA): 0.922
interaction score (4H4038-AA): -0.654
interaction score (4H510-AA): -1.16
interaction score (GCN2_T): -1.9
Binder: DKNAALKAKNAALKAEIAALEAKIAALKG [4H4038-AA]
